3 molecules from publication PMC2172055 (The Journal of Cell Biology, 2004) can be followed below.

One assay deals with Sec61α (canine (endogenous in MDCK), UniProt P38377 1-476). As to the kind of experiment: FRET or BRET.
Another assay concerns the target Sec61β (canine (endogenous in MDCK), UniProt P60467 1-96). Nature of the assay: FRET or BRET.

Sequence of Sec61α (P38377 whole entry): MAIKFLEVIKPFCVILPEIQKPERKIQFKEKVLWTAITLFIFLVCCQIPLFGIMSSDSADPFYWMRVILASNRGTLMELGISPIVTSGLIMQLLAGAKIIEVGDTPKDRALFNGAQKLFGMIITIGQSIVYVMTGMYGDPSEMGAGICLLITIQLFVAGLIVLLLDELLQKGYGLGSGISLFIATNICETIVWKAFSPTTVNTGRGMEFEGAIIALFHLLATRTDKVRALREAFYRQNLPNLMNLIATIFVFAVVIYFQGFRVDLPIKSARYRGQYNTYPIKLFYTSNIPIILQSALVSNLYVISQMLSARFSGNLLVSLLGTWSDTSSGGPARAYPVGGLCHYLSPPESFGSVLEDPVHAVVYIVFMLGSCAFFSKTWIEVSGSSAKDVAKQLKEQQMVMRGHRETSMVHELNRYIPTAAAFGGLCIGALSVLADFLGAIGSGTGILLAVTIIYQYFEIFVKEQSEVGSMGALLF
Sequence of Sec61β (P60467 whole entry): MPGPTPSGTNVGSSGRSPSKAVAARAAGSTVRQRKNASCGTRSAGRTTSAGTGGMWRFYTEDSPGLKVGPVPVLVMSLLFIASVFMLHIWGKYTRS

B1: TRAPα (natural protein)
chain: GPGGSLVAAQDLTEDEETVEDSIIEDEDDEAEVEEDEPTDLAEDKEEEDVSGEPEASPSADTTILFVKGEDFPANNIVKFLVGFTNKGTEDFIVESLDASFRYPQDYQFYIQNFTALPLNTVVPPQRQATFEYSFIPAEPMGGRPFGLVINLNYKDLNGNVFQDAVFNQTVTIIEREDGLDGETIFMYMFLAGLGLLVVVGLHQLLESRKRKRPIQKVEMGTSSQNDVDMSWIPQETLNQINKASPRRLPRKRAQKRSVGSDE
In the case of B1, in the assay with Sec61α, the “FRET efficiency (pactamycin-treated cells)” value was found to be 15.2%, the “FRET efficiency (puromycin-treated cells)” value stood at 13.6% and the “FRET efficiency (untreated cells)” value amounted to 18.4%. Further, in the assay with Sec61β, the “FRET efficiency (pactamycin-treated cells)” value came to 11.8%, the “FRET efficiency (puromycin-treated cells)” value is 11.1% and the “FRET efficiency (untreated cells)” value worked out at 13.6%.

B2: SRα (natural protein)
chain: MLDFFTIFSKGGLVLWCFQGVSDSCTGPVNALIRSVLLQERGGNNSFTHEALTLKYKLDNQFELVFVVGFQKILTLTYVDKLIDDVHRLFRDKYRTEIQQQSALSLLNGTFDFQNDFLRLLREREESSKIRAPTTMKKFEDSEKAKKPVRSMIETRGEKPKEKAKNSKKKGAKKESSDGPLATGKAVPAEKSGLPAGPENGVELSKEELIRRKREEFIQKHGRGLEKSSKSTKSDAPKEKGKKAPRVWALGGCANKEVLDYSAPTTNGAPDAAPPEDINLIRGTGPGGQLQDLDCSSSDDEETAQNASKPSATKGTLGGMFGMLKGLVGSKSLSREDMESVLDKMRDHLIAKNVAADIAVQLCESVANKLEGKVMGTFSTVTSTVKQALQESLVQILQPQRRVDMLRDIMDAQRHQRPYVVTFCGVNGVGKSTNLAKISFWLLENGFSVLIAACDTFRAGAVEHVRTHTRRLSALHPPEKHAGPTMVQLFEKGYGKDAAGIAMEAIAFARNQGFDVVLVDTAGRMQDNAPLMTALAKLITVNTPDLVLFVGEALVGNEAVDQLVKFNRALADHSMAQTPRLIDGIVLTKFDTIDDKVGAAISMTYITSKPIVFVGTGQTYCDLRSLNAKAVVAALMKA
Turning to B2, in the assay with Sec61α, the “FRET efficiency (pactamycin-treated cells)” value worked out at 32.2%, the “FRET efficiency (puromycin-treated cells)” value was found to be 31.6% and the “FRET efficiency (untreated cells)” value was found to be 34.1%. Besides, in the assay with Sec61β, the “FRET efficiency (pactamycin-treated cells)” value was found to be 18.8%, the “FRET efficiency (puromycin-treated cells)” value worked out at 17.2% and the “FRET efficiency (untreated cells)” value turned out to be 16%.

B3: TRAM (natural protein)
chain: MAIRKKSTKSPPVLSHEFILQNHADIVSCVAMVFLLGLMFEITAKASIIFVTLQYNVTLPATEEQATESTSLYYYGIKDLATVFFYMLVAIIIHAIIQEYVLDKINRRMHFSKTKHSKFNESGQLSAFYLFSCIWGTFILISENYISDPTILWRAYPHNLMTFQMKFFYIAQLAYWFHAFPELYFQKTKKEDIPRQLVYIGLYLFHIAGAYLLNLNHLGLVLLVLHYFVEFLFHISRLFYFSDEKYQKGFSLWAVLFVLGRLLTLILSVLTVGFGLARAENQKLDFSAGNFNVLAVRIAVLASICITQAFMMWKFINFQLRRWREHSTFQAPVVKKKPTVTKGRSSRKGTENGVNGTVTSNGADSPRNRKEKSS
Consider B3, for which, in the assay with Sec61α, the “FRET efficiency (pactamycin-treated cells)” value was found to be 19.7%, the “FRET efficiency (puromycin-treated cells)” value came to 19.8% and the “FRET efficiency (untreated cells)” value was 17.6%. In the assay with Sec61β, the “FRET efficiency (pactamycin-treated cells)” value was 10.4%, the “FRET efficiency (puromycin-treated cells)” value turned out to be 11.9% and the “FRET efficiency (untreated cells)” value amounted to 12.8%.
